Reference: patent publication US20130224191A1, “NOTUM PROTEIN MODULATORS AND METHODS OF USE” (priority 2010, published 2013)
Entries after “also recorded” stand apart in the source; their conditions may differ.

Assays:
murine Notum-His = molecular target: T1, murine Notum-His (Mus musculus, UniProt Q8R116); assay: Neutralization of murine Notum in 293.TCF assay; format: cell-based
T1 construct: His tag; made in house
T1 sequence (Q8R116 20-503): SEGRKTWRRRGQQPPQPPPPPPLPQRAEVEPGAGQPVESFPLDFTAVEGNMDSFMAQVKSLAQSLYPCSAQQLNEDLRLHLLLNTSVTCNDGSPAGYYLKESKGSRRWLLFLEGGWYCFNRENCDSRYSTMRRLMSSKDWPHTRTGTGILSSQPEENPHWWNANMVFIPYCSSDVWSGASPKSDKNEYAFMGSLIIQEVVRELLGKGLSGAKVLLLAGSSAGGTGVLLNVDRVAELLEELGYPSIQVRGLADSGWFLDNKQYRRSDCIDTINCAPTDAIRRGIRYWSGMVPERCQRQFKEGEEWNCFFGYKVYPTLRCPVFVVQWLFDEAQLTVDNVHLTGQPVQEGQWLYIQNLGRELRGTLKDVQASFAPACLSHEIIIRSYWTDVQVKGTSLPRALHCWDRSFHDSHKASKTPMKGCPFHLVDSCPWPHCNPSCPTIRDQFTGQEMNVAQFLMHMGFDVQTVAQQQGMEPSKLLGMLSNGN
Description: (§1) Using the 293.TCF cells, purified SC2.D2.2 and SC2.A106 antibodies were tested for their ability to neutralize murine Notum-His or macaque Notum-Fc activity as follows. 2.5×10^4 293.TCF cells were plated per well of a 96-well tissue culture plate in 50 μL of serum-free medium. After 23 hours of serum starvation, 10 μL of DMEM+0.2% FBS containing the Notum proteins at various concentrations were mixed with 15 μL of purified antibody at various concentrations, and allowed to incubate for 5 minutes at room temperature. The 25 μL antibody/Notum mixture was then added to the 293.TCF cells. After 1 hour, 25 μL of Wnt3A or control L-cell CM were added to each well. Eighteen hours after addition of CM, 100 μL of One-Glo solution (ProMega Corp.) was added to each well. The contents of each well were mixed thoroughly to lyse the cells, 100 μL of lysate transferred to black 96-well plates, and the luminescence read after 5 minutes.

macaque Notum N141D = assay: Neutralization of point mutated macaque Notum, TCF assay; format: cell-based
Description: Similarly, the macaque residue at this position was point mutated to the human residue (N141D). […] However, these point mutants differed in their ability to be neutralized by SC2.D2.2 (FIG. 26).

[1] = tested on: mouse lineage-depleted NTX tumor cells from SCRx-CR4; assay: Cell survival/proliferation, CellTiterGlo, SCRx-CR4; format: cell-based, human; conditions: antibody 10 μg/mL, versus MOPC isotype control
Description: To determine whether Notum protein impacts cell proliferation and/or apoptosis of human colorectal cancer cells, HCT-116 cells or mouse lineage-depleted NTX tumor cells (i.e. human tumor cells) were plated as described below and exposed to recombinant hNotum (e.g. hNotum-His or hNotum-hFc) and anti-Notum antibodies. Cell numbers were then assessed 12-14 days later.
Cells were then incubated for 14 days at 37° C., 5% CO2 and 5% O2 and the number of viable cells was assessed using Promega's CellTiterGlo assay kit per the manufacturer's instructions. For the HCT-116 cell line (a commercially available colorectal tumor cell line), cells were plated at 2,000 cells per well in DMEM+1% FBS, followed 24-hours later by the addition of serum free DMEM containing recombinant human Notum in the presence or absence of monoclonal antibodies SC2.D2.2 or SC2.10B3. HCT-116 cells were then incubated for 12 days at 37° C., 5% CO2 and cell viability was assessed with Promega's CellTiterGlo assay kit. Higher readings are indicative of higher viable cell counts.

[2] = molecular target: T2, human Notum (recombinant or endogenous; construct not specified at the place of use) (human, UniProt Q6P988 20-496); assay: SPR (Biacore), antigen at 12.5 to 0.78125 nM, 1:1 Langmuir binding model
T2 construct: also called hNotum; human Notum protein
T2 sequence: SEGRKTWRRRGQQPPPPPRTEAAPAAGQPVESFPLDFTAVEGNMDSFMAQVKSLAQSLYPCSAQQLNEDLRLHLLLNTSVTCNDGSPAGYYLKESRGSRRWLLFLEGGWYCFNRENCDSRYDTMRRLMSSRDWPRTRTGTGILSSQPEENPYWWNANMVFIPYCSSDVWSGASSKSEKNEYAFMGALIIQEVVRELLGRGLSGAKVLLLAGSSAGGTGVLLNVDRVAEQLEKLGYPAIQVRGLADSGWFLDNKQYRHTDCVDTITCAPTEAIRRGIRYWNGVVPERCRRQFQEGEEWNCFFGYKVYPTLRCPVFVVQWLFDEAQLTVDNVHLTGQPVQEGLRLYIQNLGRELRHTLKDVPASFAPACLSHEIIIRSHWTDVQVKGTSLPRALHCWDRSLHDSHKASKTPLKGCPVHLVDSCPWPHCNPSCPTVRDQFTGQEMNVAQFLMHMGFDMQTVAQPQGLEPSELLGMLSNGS
Description: Binding characteristics for antibodies were assessed using antibody capture Biacore technology. Disassociation constant values Kd (koff/kₒₙ) were determined for selected antibodies. A Biacore 3000 (GE Healthcare) biosensor was used for surface plasmon resonance (SPR) kinetic measurements. Using purified antibody quantitative koff constants were derived through capture the antibody on the sensor surface. Anti-mouse IgG was immobilized on the CM5 surface of sensor chip using standard amine coupling chemistry. Each mAb was captured onto an anti-IgG surface before the antigen was injected over the immobilized antibody allowing the antibody-antigen interaction to be analyzed.
Three methods were used to characterize the affinity of humanized SC2.D2.2 relative to its analogous mAb with the murine variable region. First, binding signal was measured for a fixed amount of antibody probed against serial dilutions of antigen in an ELISA format. Measured signal levels were substantially similar (data not shown). Second, the affinity of murine SC2.D2.2 was measured by Biacore using surface plasmon resonance (SPR) to provide the results set forth in FIG. 32A. […] Long off-rates for this interaction made accurate determination of affinity through kinetics difficult. […]

macaque Notum-Fc = assay: Neutralization of macaque Notum in 293.TCF assay; format: cell-based
Description: as §1

[3] = molecular target: T3, mouse Notum (construct not specified at the place of use) (mouse, UniProt Q8R116 20-503, limits assumed); assay: ELISA, Notum coated directly on plate
T3 construct: Purified antigen from transient transfection of mouse Notum cDNA; also called murine Notum
T3 sequence (looked up): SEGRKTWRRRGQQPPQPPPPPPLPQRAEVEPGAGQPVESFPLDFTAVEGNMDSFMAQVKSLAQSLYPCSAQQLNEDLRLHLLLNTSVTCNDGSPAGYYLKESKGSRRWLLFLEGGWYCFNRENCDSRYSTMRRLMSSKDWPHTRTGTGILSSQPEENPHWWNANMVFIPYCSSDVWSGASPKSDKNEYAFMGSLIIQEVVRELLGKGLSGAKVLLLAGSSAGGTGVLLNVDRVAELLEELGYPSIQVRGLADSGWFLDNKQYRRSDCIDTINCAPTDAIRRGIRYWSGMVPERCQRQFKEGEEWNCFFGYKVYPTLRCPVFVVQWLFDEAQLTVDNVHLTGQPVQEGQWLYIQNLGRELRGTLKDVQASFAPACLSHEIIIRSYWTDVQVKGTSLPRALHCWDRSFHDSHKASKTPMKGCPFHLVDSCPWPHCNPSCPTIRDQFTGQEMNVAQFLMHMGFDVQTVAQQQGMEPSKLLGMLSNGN

B1: SC2.D2.2 (antibody, V domains shown)
VH: DVQLVESGGGLVQPGGSRKISCAASGFTFSSYGMHWVRQAPEKGLEWVAYISSSTVTTYYADTVKGRFTISRDNANNTLFLQMTSLRSEDTAMYYCSRQNWDGGYFDVWGAGTTVTVSS
VL: DIVLTQSLASLAVSLGQRATISCRASKSVSSSGYSYMHWYQQKPGQPPKLLIYLASNLESGVPARFSGSGSGTDFTLNIHPVEEEDAATYYCQHSRALPLTFGAGTKLELKR
notes: also called murine SC2.D2.2
- inhibition of murine Notum activity (murine Notum-His): did not inhibit; also recorded: without inhibiting murine or macaque versions of the protein
- neutralization of mutant Notum protein (macaque Notum N141D): now enabled SC2.D2.2 to neutralize the mutant protein
- effect on proliferation / cell numbers [1]: significantly less proliferation
- Kd [2]: < 0.1 nM
- inhibition of macaque Notum activity (macaque Notum-Fc): did not inhibit; also recorded: without inhibiting murine or macaque versions of the protein
- binding result [3]: no binding
